Experimental data as given in patent JP2020148511A (dated 2020).

Legend:
[1] = target: A型インフルエンザウィルス亜型H1N1(A/Puerto Rico/8/1934)の核内タンパク質(NP抗原) (Influenza A virus H1N1 (A/Puerto …, UniProt P03466 1-498)); assay: sandwich ELISA, […] (capture) […]
[2] = target: H1N1インフルエンザウィルスA型(A/Puerto Rico/8/34/Mount Sinai)由来のリコンビナント核内タンパク質 (Influenza A virus H1N1 (A/Puerto …, UniProt P03466 1-498)); assay: phage ELISA, NP coated at 2 ug/mL, anti-M13 detection, A450

B1: 抗体A3 (VHH antibody having the amino acid sequence of SEQ ID NO: 3) (VHH)
VHH: EVQLVESGGGLVQPGGSLSLSCAASGFTFSNYYMGWFRQAPGKERQSLATVNSGGTGEAYADSIRGRFTISRDNAKNTVTLQMSSLQPEDTAVYYCARVDGRVLSTIVVSYDYWGQGTQVTVSS
[1]
  binding result: binds
[2]
  binding result: binds

B2: 抗体A4 (VHH antibody having the amino acid sequence of SEQ ID NO: 4) (VHH)
VHH: EVQLVESGGGLVQAGDSLRLSCAASGRTFINLDMGWFRQPPGKEREYVAAITRNGAITSYADSAKGRFTISRDNAKNTVSLEMNSLKPEDTGVYYCAAYSISNYGSGWYKPDYWGQGAQVTVSS
[1]
  binding result: binds

B3: 抗体A1 (VHH antibody having the amino acid sequence of SEQ ID NO: 1) (VHH)
VHH: QLQLVESGGGLVQAGGSLRLSCAASGSAFSLYAMGWHRQAPGKQRELVAYITNGDITNYADSVQGRVIISRDNAKNTVYLHMNSLKPEDTAVYYCYAVGGRTFWGQGTQVTVSS
[1]
  binding result: binds

B4: 抗体A2 (VHH antibody having the amino acid sequence of SEQ ID NO: 2) (VHH)
VHH: QVQLVESGGGLVQTGGPLRLSCAVSDRTDSNYAMGWFRQAPGKEREFVAAISGTGYVTGYADSARNRFTLSRDNGKNAVYLQMNSLEPADTAVYYCAATSDQRYPGPRSSGYDYWGQGTQVTVSS
[1]
  binding result: binds
